From patent US10597433B2, “Peptides and combination of peptides for use in immunotherapy against small cell lung cancer and other cancers” (Immatics Biotechnologies GmbH, priority 2015, dated 2020)

Target: HLA-A*02:01 (Homo sapiens, UniProt P04439, D140Y/D185E/D98H/E176V/E277Q/G131W/G231S/I119V/I121R/I166T/I218V/L300P/L318F/N151K/N90K/P208A/P217A/Q86G/Q94H/R138H/R169H/T345S)
Assay: MHC binding assay: UV-ligand exchange with ELISA detection of β2m of stabilized MHC complexes
Settings: binding to HLA-A*02:01
Text: Candidate peptides for T cell based therapies according to the present invention were further tested for their MHC binding capacity (affinity). The individual peptide-MHC complexes were produced by UV-ligand exchange, where a UV-sensitive peptide is cleaved upon UV-irradiation, and exchanged with the peptide of interest as analyzed. Only peptide candidates that can effectively bind and stabilize the peptide-receptive MHC molecules prevent dissociation of the MHC complexes. To determine the yield of the exchange reaction, an ELISA was performed based on the detection of the light chain (β2m) of stabilized MHC complexes. The assay was performed as generally described in Rodenko et al. (Rodenko et al., 2006).
96 well MAXISorp plates (NUNC) were coated over night with 2 μg/ml streptavidin in PBS at room temperature, washed 4× and blocked for 1 h at 37° C. in 2% BSA containing blocking buffer. Refolded HLA-A*02:01/MLA-001 monomers served as standards, covering the range of 15-500 ng/ml. Peptide-MHC monomers of the UV-exchange reaction were diluted 100 fold in blocking buffer. Samples were incubated for 1 h at 37° C., washed four times, incubated with 2 μg/ml HRP conjugated anti-β2m for 1 h at 37° C., washed again and detected with TMB solution that is stopped with […]. Absorption was measured at 450 nm. Candidate peptides that show a high exchange yield (preferably higher than 50%, most preferred higher than 75%) are generally preferred for a generation and production of antibodies or fragments thereof, and/or T cell receptors or fragments thereof, as they show sufficient avidity to the MHC molecules and prevent dissociation of the MHC complexes.

Row | Substance | Peptide exchange (MHC class I binding score, peptide exchange yield)
1 | 1 (AMLEEVNYI; listed as Homo sapiens) [compound 1] | +++ (≥50 = +++)
2 | 3 (VLAEIDPKQLV; listed as Homo sapiens) [compound 3] | +++ (≥50 = +++)
3 | 5 (SLQSLIISV; listed as Homo sapiens) [compound 5] | ++++ (≥75% = ++++)
4 | 7 (GLLGDIAIHL; listed as Homo sapiens) [compound 7] | +++ (≥50 = +++)
5 | 9 (AAAPGEALHTA; listed as Homo sapiens) [compound 9] | ++ (≥20% = ++)
6 | 12 (MLFEGLDLVSA; listed as Homo sapiens) [compound 12] | +++ (≥50 = +++)
7 | 13 (FLTAFLVQI; listed as Homo sapiens) [compound 13] | +++ (≥50 = +++)
8 | 14 (ILIETKLVL; listed as Homo sapiens) [compound 14] | +++ (≥50 = +++)
9 | 15 (SLLTAISEV; listed as Homo sapiens) [compound 15] | +++ (≥50 = +++)
10 | 16 (VILDLPLVI; listed as Homo sapiens) [compound 16] | +++ (≥50 = +++)
11 | 17 (SLMLVTVEL; listed as Homo sapiens) [compound 17] | +++ (≥50 = +++)
12 | 18 (ALGEISVSV; listed as Homo sapiens) [compound 18] | +++ (≥50 = +++)
13 | 19 (VLLTTAVEV; listed as Homo sapiens) [compound 19] | +++ (≥50 = +++)
14 | 20 (MLDEILLQL; listed as Homo sapiens) [compound 20] | +++ (≥50 = +++)
15 | 21 (TMEEMIFEV; listed as Homo sapiens) [compound 21] | +++ (≥50 = +++)
16 | 22 (LLPEKSWEI; listed as Homo sapiens) [compound 22] | +++ (≥50 = +++)
17 | 23 (YQIDTVINL; listed as Homo sapiens) [compound 23] | +++ (≥50 = +++)
18 | 24 (FLMEEVHMI; listed as Homo sapiens) [compound 24] | +++ (≥50 = +++)
19 | 25 (GLSETILAV; listed as Homo sapiens) [compound 25] | ++++ (≥75% = ++++)
20 | 26 (KMLDEAVFQV; listed as Homo sapiens) [compound 26] | ++++ (≥75% = ++++)
21 | 27 (SLDIITITV; listed as Homo sapiens) [compound 27] | ++++ (≥75% = ++++)

Row | Substance | Peptide exchange (MHC class I binding score, peptide exchange yield)
22 | 28 (ILVSQLEQL; listed as Homo sapiens) [compound 28] | ++++ (≥75% = ++++)
23 | 30 (KMLGLTVSL; listed as Homo sapiens) [compound 30] | +++ (≥50 = +++)
24 | 31 (RLLQDPVGV; listed as Homo sapiens) [compound 31] | ++++ (≥75% = ++++)
25 | 32 (ALTSLELEL; listed as Homo sapiens) [compound 32] | +++ (≥50 = +++)
26 | 34 (LVFEGIMEV; listed as Homo sapiens) [compound 34] | +++ (≥50 = +++)
27 | 35 (FMGDVFINV; listed as Homo sapiens) [compound 35] | ++++ (≥75% = ++++)
28 | 36 (RMDGAVTSV; listed as Homo sapiens) [compound 36] | +++ (≥50 = +++)
29 | 37 (SLFYNELHYV; listed as Homo sapiens) [compound 37] | +++ (≥50 = +++)
30 | 38 (GLISSLNEI; listed as Homo sapiens) [compound 38] | ++++ (≥75% = ++++)
31 | 40 (GLLEVQVEV; listed as Homo sapiens) [compound 40] | +++ (≥50 = +++)
32 | 41 (KAYQELLATV; listed as Homo sapiens) [compound 41] | +++ (≥50 = +++)
33 | 42 (GLLEDERALQL; listed as Homo sapiens) [compound 42] | +++ (≥50 = +++)
34 | 43 (YLWSEVFSM; listed as Homo sapiens) [compound 43] | +++ (≥50 = +++)
35 | 44 (ALIVGIPSV; listed as Homo sapiens) [compound 44] | ++++ (≥75% = ++++)
36 | 45 (SLSGEIILHSV; listed as Homo sapiens) [compound 45] | ++ (≥20% = ++)
37 | 46 (ALWVAVPKA; listed as Homo sapiens) [compound 46] | +++ (≥50 = +++)
38 | 47 (GLLEALLKI; listed as Homo sapiens) [compound 47] | +++ (≥50 = +++)
39 | 48 (SLIGLDLSSV; listed as Homo sapiens) [compound 48] | +++ (≥50 = +++)
40 | 49 (RLALNTPKV; listed as Homo sapiens) [compound 49] | ++ (≥20% = ++)
41 | 50 (FLLSQIVAL; listed as Homo sapiens) [compound 50] | +++ (≥50 = +++)
42 | 51 (ILDEAGVKYFL; listed as Homo sapiens) [compound 51] | +++ (≥50 = +++)

Row | Substance | Peptide exchange (MHC class I binding score, peptide exchange yield)
43 | 52 (ILASFMLTGV; listed as Homo sapiens) [compound 52] | ++++ (≥75% = ++++)
44 | 53 (LLSEEHITL; listed as Homo sapiens) [compound 53] | ++++ (≥75% = ++++)
45 | 54 (HLFDIILTSV; listed as Homo sapiens) [compound 54] | ++++ (≥75% = ++++)
46 | 55 (LLIADNPQL; listed as Homo sapiens) [compound 55] | ++++ (≥75% = ++++)
47 | 56 (SLFSQMGSQYEL; listed as Homo sapiens) [compound 56] | +++ (≥50 = +++)
48 | 57 (VLIGDVLVAV; listed as Homo sapiens) [compound 57] | ++++ (≥75% = ++++)
49 | 58 (VLLNINGIDL; listed as Homo sapiens) [compound 58] | ++++ (≥75% = ++++)
50 | 59 (VLLSGLTEV; listed as Homo sapiens) [compound 59] | ++++ (≥75% = ++++)
51 | 60 (VVSGATETL; listed as Homo sapiens) [compound 60] | ++++ (≥75% = ++++)
52 | 61 (YQAPYFLTV; listed as Homo sapiens) [compound 61] | +++ (≥50 = +++)
53 | 62 (VMLPIGAVVMV; listed as Homo sapiens) [compound 62] | +++ (≥50 = +++)
54 | 63 (LLMSTENEL; listed as Homo sapiens) [compound 63] | +++ (≥50 = +++)
55 | 64 (VLFHQLQEI; listed as Homo sapiens) [compound 64] | +++ (≥50 = +++)
56 | 65 (VMYDLITEL; listed as Homo sapiens) [compound 65] | +++ (≥50 = +++)
57 | 66 (YLNLISTSV; listed as Homo sapiens) [compound 66] | +++ (≥50 = +++)
58 | 67 (MLYDIVPVV; listed as Homo sapiens) [compound 67] | +++ (≥50 = +++)
59 | 68 (FLFPVYPLI; listed as Homo sapiens) [compound 68] | +++ (≥50 = +++)
60 | 69 (KLFDRSVDL; listed as Homo sapiens) [compound 69] | ++ (≥20% = ++)
61 | 70 (TLLWKLVEV; listed as Homo sapiens) [compound 70] | ++ (≥20% = ++)
62 | 71 (FIFEQVQNV; listed as Homo sapiens) [compound 71] | +++ (≥50 = +++)
63 | 72 (KAIGSLKEV; listed as Homo sapiens) [compound 72] | +++ (≥50 = +++)
